Usually Kd stands for the equilibrium constant for the complex coming apart. Lower therefore signals higher affinity.

For this assay, the target named is mono-nucleosome di-methylated at H3K4 (Xenopus). Nature of the assay: native gel or EMSA.

B1: GST-PHD_(Yng2) (domain or fragment)
chain: TLYCFCQRVSFGEMVACDGPNCKYEWFHYDCVNLKEPPKGTWYCPECKIE
modifications: not checked
Regarding B1, the Kd came to 10 µM.
